This is an account of results in the supplement of paper PMC7877785.

This data set can be described thus: self-splicing fitness, log relative to wild type (ln ratio); higher = more splicing; Tetrahymena group I intron in knt gene, E. coli kanamycin selection, DiMSum; sequences stand for … in CUCUCU…GGAGGGAAAAGUUAUCAGGCAUGCACCUGGUAGCUAGUCUUUAAACCAAUAGAUUGCAUCGGUUUAAAAGGCAAGACCGUCAAAUUGCGGGAAAGGGGUCAACAGCCGUUCAGUACCAAGUCUCAGGGGAAACUUUGAGAUGGCCUUGCAAAGGGUAUGGUAAUAAGCUGACGGACAUGGUCCUAACCACGCAGCCAAGUCCUAAGUCAACAGAUCUUCUGUUGAUAUGGAUGCAGUUCACAGACUAAAUGUCGGUCGGGGAAGAUGUAUUCUUCUCAUAAGAUAUAGUCGGACCUCUCCUUAAUGGGAGCUAGCGGAUGAAGUGAUGCAACACUGGAGCCGCUGGGAACUAAUUUGUAUGCGAAAGUAUAUUGAUUAGUUUUGGAGUACUCGUGGUCG
The method, boiled down:
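The eight P1ex-region nucleotides of an intron in the knt kanamycin-resistance gene on pET-22b(+) were all randomised and the library put into E. coli BL21(DE3). Six replicate transformations were grown overnight at 37°C or 30°C on LB agar with or without 25 μg/mL kanamycin, together with 100 μg/mL carbenicillin, 50 μM IPTG and 0.2% rhamnose. Colonies were pooled and amplicon-sequenced on an Illumina HiSeq 2500. Fitness from DiMSum is the error-weighted combination of wild-type-normalised replicate fold changes, kanamycin over none.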

± gives the uncertainty stated by the source.

As for UGUGAGCAAUAUUACGGAGG, the “self-splicing fitness (ln)” value by setting is: (30 °C) -3.33 ± 0.29; (37 °C) -2.11 ± 0.34.
GGACAGCAAUAUUACGAACC: the “self-splicing fitness (ln)” value was -1.23 ± 0.27 (30 °C) and -0.895 ± 0.23 (37 °C).
With GCGAAGCAAUAUUACGCACU, the “self-splicing fitness (ln)” value (30 °C) is -1.72 ± 0.18 and the “self-splicing fitness (ln)” value (37 °C) was -0.633 ± 0.21.
For the sequence ACACAGCAAUAUUACGCCUG, the “self-splicing fitness (ln)” value reads like this: (30 °C) -0.898 ± 0.07; (37 °C) -0.245 ± 0.076.
As to GCGCAGCAAUAUUACGGGCG, the “self-splicing fitness (ln)” value by setting is: (30 °C) -3.71 ± 0.47; (37 °C) -3.03 ± 0.4.
As for UAGAAGCAAUAUUACGUUGG, the “self-splicing fitness (ln)” value is -2.54 ± 0.14 (30 °C) and -1.55 ± 0.14 (37 °C).
For the sequence UCUUAGCAAUAUUACGUGGA, the “self-splicing fitness (ln)” value (30 °C) is -3.14 ± 0.32 and the “self-splicing fitness (ln)” value (37 °C) is -3.03 ± 0.37.
For UAGGAGCAAUAUUACGCGGU, the “self-splicing fitness (ln)” value (30 °C) is -1.52 ± 0.23.
Regarding UUACAGCAAUAUUACGGACC, the “self-splicing fitness (ln)” value runs as follows: (30 °C) -3.25 ± 0.4; (37 °C) -1.41 ± 0.32.
AUUGAGCAAUAUUACGUACC: the “self-splicing fitness (ln)” value (37 °C) is -1.17 ± 0.46.
Regarding GUCUAGCAAUAUUACGGCCU, the “self-splicing fitness (ln)” value (30 °C) was -2.09 ± 0.19 and the “self-splicing fitness (ln)” value (37 °C) is -1.19 ± 0.16.
Regarding UCAAAGCAAUAUUACGUAAU, the “self-splicing fitness (ln)” value is -4.1 ± 0.21 (30 °C) and -3.66 ± 0.21 (37 °C).
As for CUUUAGCAAUAUUACGUUCU, the “self-splicing fitness (ln)” value was -3.16 ± 0.25 (30 °C) and -2.78 ± 0.29 (37 °C).
For GUCCAGCAAUAUUACGCUGU, in that order: -0.609 ± 0.073 and -0.386 ± 0.076.
On to ACUCAGCAAUAUUACGCCUA, for which the “self-splicing fitness (ln)” value by setting is: (30 °C) -0.864 ± 0.15; (37 °C) -0.0704 ± 0.12.
The matching figures for GACAAGCAAUAUUACGUUAG: -3.84 ± 0.2 and -3.34 ± 0.19.
The matching figures for AACGAGCAAUAUUACGAGCG: -2.76 ± 0.19 and -2.55 ± 0.2.
UAAGAGCAAUAUUACGAUCA: the “self-splicing fitness (ln)” value (30 °C) is -2.23 ± 0.29 and the “self-splicing fitness (ln)” value (37 °C) is -0.554 ± 0.19.
Take GCGAAGCAAUAUUACGCAAG: the “self-splicing fitness (ln)” value (30 °C) was -2.51 ± 0.42.
Turning to AGGAAGCAAUAUUACGAAUA, the “self-splicing fitness (ln)” value is, setting by setting: (30 °C) -2.74 ± 0.36; (37 °C) -1.11 ± 0.27.
Turning to UGUGAGCAAUAUUACGACGC, the “self-splicing fitness (ln)” value (30 °C) is -2.98 ± 0.33 and the “self-splicing fitness (ln)” value (37 °C) was -2.67 ± 0.38.
As to AAUCAGCAAUAUUACGAUAG, the “self-splicing fitness (ln)” value is, setting by setting: (30 °C) -1.3 ± 0.1; (37 °C) -0.239 ± 0.1.
Consider UGUUAGCAAUAUUACGGGUG, for which the “self-splicing fitness (ln)” value reads like this: (30 °C) -0.781 ± 0.071; (37 °C) -0.441 ± 0.086.
As to CGCGAGCAAUAUUACGGCAC, for the setting “37 °C”, the “self-splicing fitness (ln)” value was -1.87 ± 0.41.
Regarding CCGAAGCAAUAUUACGAGUA, the “self-splicing fitness (ln)” value reads like this: (30 °C) -2.42 ± 0.2; (37 °C) -2.92 ± 0.23.
For AACCAGCAAUAUUACGGUUU, in that order: -3.26 ± 0.12 and -2.96 ± 0.17.
The matching figures for UGAAAGCAAUAUUACGUAGU: -3.96 ± 0.26 and -2.16 ± 0.18.
For CCCCAGCAAUAUUACGUUGG, the “self-splicing fitness (ln)” value by setting is: (30 °C) -3.95 ± 0.12; (37 °C) -2.83 ± 0.14.
On to GGAAAGCAAUAUUACGAUCU, for which the “self-splicing fitness (ln)” value (30 °C) is -3.9 ± 0.42 and the “self-splicing fitness (ln)” value (37 °C) is -1.68 ± 0.32.
On to UCUGAGCAAUAUUACGGUGA, for which the “self-splicing fitness (ln)” value (30 °C) was -0.612 ± 0.11 and the “self-splicing fitness (ln)” value (37 °C) was -0.1 ± 0.13.
For GGUAAGCAAUAUUACGCCGU, in that order: -1.93 ± 0.11 and -0.738 ± 0.13.
Consider GCAUAGCAAUAUUACGUCCC, for which the “self-splicing fitness (ln)” value (30 °C) was -1.38 ± 0.22 and the “self-splicing fitness (ln)” value (37 °C) was determined as 0.182 ± 0.21.
UACCAGCAAUAUUACGGGAU: the “self-splicing fitness (ln)” value was -3.25 ± 0.16 (30 °C) and -1.53 ± 0.12 (37 °C).
For GCCUAGCAAUAUUACGGCCG, in that order: -3.44 ± 0.26 and -2.37 ± 0.32.
As to AUGAAGCAAUAUUACGCUUC, the “self-splicing fitness (ln)” value by setting is: (30 °C) -1.79 ± 0.15; (37 °C) -2.99 ± 0.41.
In the case of CUAAAGCAAUAUUACGGGAA, the “self-splicing fitness (ln)” value runs as follows: (30 °C) -3.28 ± 0.2; (37 °C) -2.1 ± 0.17.
Turning to GUGUAGCAAUAUUACGCAUC, the “self-splicing fitness (ln)” value (37 °C) is -0.977 ± 0.26.
For the sequence AUGUAGCAAUAUUACGCUAA, the “self-splicing fitness (ln)” value was -1.75 ± 0.12 (30 °C) and -0.814 ± 0.13 (37 °C).
On to CAGUAGCAAUAUUACGAUUG, for which the “self-splicing fitness (ln)” value was -1.73 ± 0.083 (30 °C) and -0.648 ± 0.11 (37 °C).
